Source: the supplement of paper PMC12764529
± gives the half width of the 95% confidence interval.

assay: folding stability dG unfold from chymotrypsin proteolysis; higher = more stable
Procedure, shortened: (§1)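 Unfolding free energy was derived, per protease or combined, by relating Bayesian-fitted K50 values from sequencing counts to a sequence-predicted unfolded-state K50 and a shared folded-state K50. The underlying digests exposed cysteine-free mini-proteins under 80 residues, in a PA-tagged cDNA display construct, to trypsin and chymotrypsin at 11 threefold-diluted concentrations and to a no-protease condition. A filter kept only designs with AlphaFold2 dimer inter-PAE above 15.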

| Sequence | folding stability dG unfold |
| --- | --- |
| SAGGSAGGSGEELRNLLANVKKVTVFPNADGGLGVLIELEPEEPEERTIVLNYDQLAELLALGSAGGSAGGS [r12_466_TrMRF] | 0.813 ± 0.11 kcal/mol |
| SAGGSVRVETEFERLPDGPIVVRVRITLPNGETLEFTAVYYPEPSGIPMFVPEPVPPNAIEGIDIKVSAGGS [r16_95_TrMRF] | 1.78 ± 0.047 kcal/mol |
| SAGGSAGGSAMTPQVIKVTLYKPATGDVRTVVVLDPVPNTSLDEVAAALPSDYVVAKVEVGSAGGSAGGSAG [r3_80_TrMRF] | -0.308 ± 0.33 kcal/mol |
| SAGGMITLEIELEDGTKIKIEITRLVSYDEEKGYAIFEAKITVEKDGKKFEKTITIIVKKGTKPGEIISAGG [r13_823_TrROS_Hall] | 4.01 ± 0.25 kcal/mol |
| SAGSSTTLTFPVDTKIPDEKGNPLSSSTVTVTVNPSPGKVTATLTDPATGTVTTVEFGSLEKVEAFLSSSAG [r14_508_JUSTAS] | -0.218 ± 0.18 kcal/mol |
| SAGSGVILRTPEGKYVPLSALSEEEIKTAIEDPLSPAPPVTVEVTVTSVRLPVPRTVTTTEVVVTVLGSAGG [r19_232_JUSTAS] | 0.233 ± 0.19 kcal/mol |
| SAGGSAGGEMTAEELAEKLAEELKEKGYEVEVEVVEVEVEEDTVRIKIKLKDGRELEIELKIEPSAGGSAGG [r6_617_TrROS_Hall] | 2.79 ± 0.28 kcal/mol |
| SWQIKEVFPLPNGMRIKVYIHPDGYVQVSIRMYRPNPNDGKPQRQRFSITVPLPPGKPPSIDDILDYILNSA [r9_614_TrROS] | 2.24 ± 0.21 kcal/mol |
| SAEVEVLPFEFELPNGLRVEVHLVRLPDGTVVAPVLLVEYDPVTGEPRLSRAVAVFDPSTGKVTVLPLDSAG [r14_324_TrMRF] | 2.993 ± 0.017 kcal/mol |
| SAGGVDKGPPDAEVSREVLPRKLPNGKELLEEIRTRVLASGSLLVDRTIRDPNSDKVESEELVDPGASAGGS [r8_129_JUSTAS] | -0.0363 ± 0.16 kcal/mol |
| SAGASVEQWSLTSVEVTELPGPEVVVPMTARLPDGTEVVMSGVVGPGSVTLTSPDGSTSTLAIPPALASAGG [r19_84_JUSTAS] | 0.734 ± 0.045 kcal/mol |
| SEAKTMSPEELKEFIEEYIEEERKKNPGKPVRIAIEDLKEKFPGFSPEELKKLLGLSEEELENGAIEIEPSA [r9_525_TrMRF] | 2.38 ± 0.11 kcal/mol |
| SAGGSAGGSAGGMVIKITTESGEKIEIEVPEEDEEKVKELVKELEKAGFKVKKVEVFEPSAGGSAGGSAGGS [r10_231_TrROS_Hall] | 1.87 ± 0.073 kcal/mol |
| SAGGSAGGSAGGSTRDFLVKDPSNGQWYKVTATTDPAGAVTITFPETGEVVPLEGLVVSPSAGGSAGGSAGG [r11_301_JUSTAS] | 1.338 ± 0.012 kcal/mol |
| SAGGSAGGSGSMKVYTHNVPPGQELTITITRGSSSTTLTFPPNTTVTITVPTSSPATITLTAPSAGGSAGGS [r12_550_JUSTAS] | 1.87 ± 0.054 kcal/mol |
| SAGGSAGGSAKKKKYKVKIKVINENGEIYEIDEIYFDEKTKKIYIKIKNKDGEEKVFEIELDSAGGSAGGSA [r18_370_TrROS_Hall] | 3.74 ± 0.051 kcal/mol |

assay: folding stability dG unfold (combined trypsin and chymotrypsin); higher = more stable
Procedure, shortened: as §1

| Sequence | folding stability dG unfold |
| --- | --- |
| SAGGSAGGMTVDPENPVVYYPGSDGKAQTYPLSPDSSLKLPDGKVVTVTPVPEGSVSVSVSPVESAGGSAGG [r6_296_JUSTAS] | 1.02 ± 0.036 kcal/mol |
| SMYDIVITVPSPEDVKALEEAFKELGVEEIEVERLPEERYRIVIKTKGSVEEIVEAIRKIAEENGLEIEPSA [r9_1003_TrMRF] | 3.75 ± 0.19 kcal/mol |
| SAGGSAGGSAGKIEIYPNDNQYYIKITVPRRNPNNGKWERQERTIPMPPDQAKELLKNGISAGGSAGGSAGG [r11_389_TrROS] | -0.17 ± 0.3 kcal/mol |
| SAGGSAGGSDPNNEPVYIMMKFEIEIKVERDPENGKPKAEDPITITFIIRIPPNGNLEIGIMISAGGSAGGS [r12_438_TrROS] | 4.11 ± 0.12 kcal/mol |
| SAGGSAGGSAGFKSVTIGSGTGGLTLTITDVTTGKNTVVNATSLEEAEKIGKEKGWKIILSSAGGSAGGSAG [r3_67_JUSTAS] | 0.305 ± 0.15 kcal/mol |
| SAGGSAGGSAGMKIEIELDENGELRIRITVYNKETKEEVEEFEFTLPLEELEEELRKLLESAGGSAGGSAGG [r11_376_TrROS_Hall] | 3.5 ± 0.22 kcal/mol |
| SLEVAAELGLSVSSLEELETDPEKGTRLLRLTAPTPGATVEVLVEVTTRKDSKGETVPEVRVLAVRTVAPSA [r9_613_JUSTAS] | 1.26 ± 0.07 kcal/mol |
| SAGGSAGGSAGDDNDGKKKFPMTIKIPPIPIEIPPGMKITSWIPIRIPGGLEFPIIYITPSAGGSAGGSAGG [r11_388_TrROS] | 1.03 ± 0.098 kcal/mol |
| SAGSASSIKPISSTLDVRTDPETGKPVKATVYTYVLPSDGSSKQVPVPLSKKEPINLSPSDSYVTETRESAG [r5_950_JUSTAS] | -0.361 ± 0.22 kcal/mol |
| SAGGSAMTLEEARELVERLVRELFPDAEVLDVDAVRLPDRLVLVDAVVRPKYRPDEVLRFRFLLGDSAGGSA [r15_627_TrMRF] | 3.94 ± 0.06 kcal/mol |
| SAGGSAKLSAEEIAKLLKKLFPEVKEIKVKVEVNGKLYEVKIKVEKVKKKEKKKVEGMSEEEKKKLSAGGSA [r15_156_TrROS_Hall] | 2.35 ± 0.32 kcal/mol |
| SAGGGLPASDPDVTATTETFTVTYTEATPEGNPVTTTTTTTVTTYTAPDGAVTTTTTTTSTTVTPASTSAGG [r13_51_JUSTAS] | 1.76 ± 0.038 kcal/mol |
| SAGGMTAEEIAEALRERLRELFPPGAEIEVDEIEVEEVEVEEEPVELSEEERERVEKMPEEERERLLSAGGS [r16_272_TrROS_Hall] | 0.635 ± 0.33 kcal/mol |
| SAGGVNPTDPAQATTTETTPSLVTLPNGEKVLVTTTTTTTPDGSTTTTTTTTNAATGATTSTTTTTASAGGS [r8_252_JUSTAS] | 2.19 ± 0.14 kcal/mol |
| SMEPGERYRITATRKDGSRVEVEAIPGGVLRARVYLPNGELVGEAEFPVDRPVELLEALGLDELVSVEPESA [r9_1107_TrMRF] | 2.32 ± 0.086 kcal/mol |
| SAGGSAGGSGEELRNLLANVKKVTVFPNADGGLGVLIELEPEEPEERTIVLNYDQLAELLALGSAGGSAGGS [r12_466_TrMRF] | 0.936 ± 0.15 kcal/mol |

| Sequence | folding stability dG unfold |
| --- | --- |
| SAGGSVRVETEFERLPDGPIVVRVRITLPNGETLEFTAVYYPEPSGIPMFVPEPVPPNAIEGIDIKVSAGGS [r16_95_TrMRF] | 2.11 ± 0.16 kcal/mol |
| SAGGSAGGSAMTPQVIKVTLYKPATGDVRTVVVLDPVPNTSLDEVAAALPSDYVVAKVEVGSAGGSAGGSAG [r3_80_TrMRF] | -0.0325 ± 0.14 kcal/mol |
| SAGGMITLEIELEDGTKIKIEITRLVSYDEEKGYAIFEAKITVEKDGKKFEKTITIIVKKGTKPGEIISAGG [r13_823_TrROS_Hall] | 4.19 ± 0.38 kcal/mol |
| SAGSSTTLTFPVDTKIPDEKGNPLSSSTVTVTVNPSPGKVTATLTDPATGTVTTVEFGSLEKVEAFLSSSAG [r14_508_JUSTAS] | 0.809 ± 0.067 kcal/mol |
| SAGSGVILRTPEGKYVPLSALSEEEIKTAIEDPLSPAPPVTVEVTVTSVRLPVPRTVTTTEVVVTVLGSAGG [r19_232_JUSTAS] | 0.115 ± 0.19 kcal/mol |
| SAGGSAGGEMTAEELAEKLAEELKEKGYEVEVEVVEVEVEEDTVRIKIKLKDGRELEIELKIEPSAGGSAGG [r6_617_TrROS_Hall] | 2.74 ± 0.25 kcal/mol |
| SWQIKEVFPLPNGMRIKVYIHPDGYVQVSIRMYRPNPNDGKPQRQRFSITVPLPPGKPPSIDDILDYILNSA [r9_614_TrROS] | 2.44 ± 0.22 kcal/mol |
| SAEVEVLPFEFELPNGLRVEVHLVRLPDGTVVAPVLLVEYDPVTGEPRLSRAVAVFDPSTGKVTVLPLDSAG [r14_324_TrMRF] | 2.97 ± 0.042 kcal/mol |
| SAGGVDKGPPDAEVSREVLPRKLPNGKELLEEIRTRVLASGSLLVDRTIRDPNSDKVESEELVDPGASAGGS [r8_129_JUSTAS] | -0.0613 ± 0.32 kcal/mol |
| SAGASVEQWSLTSVEVTELPGPEVVVPMTARLPDGTEVVMSGVVGPGSVTLTSPDGSTSTLAIPPALASAGG [r19_84_JUSTAS] | 1.03 ± 0.04 kcal/mol |
| SEAKTMSPEELKEFIEEYIEEERKKNPGKPVRIAIEDLKEKFPGFSPEELKKLLGLSEEELENGAIEIEPSA [r9_525_TrMRF] | 2.22 ± 0.24 kcal/mol |
| SAGGSAGGSAGGMVIKITTESGEKIEIEVPEEDEEKVKELVKELEKAGFKVKKVEVFEPSAGGSAGGSAGGS [r10_231_TrROS_Hall] | 1.77 ± 0.17 kcal/mol |
| SAGGSAGGSAGGSTRDFLVKDPSNGQWYKVTATTDPAGAVTITFPETGEVVPLEGLVVSPSAGGSAGGSAGG [r11_301_JUSTAS] | 1.43 ± 0.042 kcal/mol |
| SAGGSAGGSGSMKVYTHNVPPGQELTITITRGSSSTTLTFPPNTTVTITVPTSSPATITLTAPSAGGSAGGS [r12_550_JUSTAS] | 1.74 ± 0.07 kcal/mol |
| SAGGSAGGSAKKKKYKVKIKVINENGEIYEIDEIYFDEKTKKIYIKIKNKDGEEKVFEIELDSAGGSAGGSA [r18_370_TrROS_Hall] | 3.25 ± 0.13 kcal/mol |
